Data reported in IntAct's records for PubMed 27478939.

B1: Purine nucleoside phosphorylase LACC1 (Homo sapiens), Q8IV20 (parent)
chain: MAEAVLIDLFGLKLNSQKNCHQTLLKTLNAVQYHHAAKAKFLCIMCCSNISYERDGEQDNCEIETSNGLSALLEEFEIVSCPSMAATLYTIKQKIDEKNLSSIKVIVPRHRKTLMKAFIDQLFTDVYNFEFEDLQVTFRGGLFKQSIEINVITAQELRGIQNEIETFLRSLPALRGKLTIITSSLIPDIFIHGFTTRTGGISYIPTLSSFNLFSSSKRRDPKVVVQENLRRLANAAGFNVEKFYRIKTHHSNDIWIMGRKEPDSYDGITTNQRGVTIAALGADCIPIVFADPVKKACGVAHAGWKGTLLGVAMATVNAMIAEYGCSLEDIVVVLGPSVGPCCFTLPRESAEAFHNLHPACVQLFDSPNPCIDIRKATRILLEQGGILPQNIQDQNQDLNLCTSCHPDKFFSHVRDGLNFGTQIGFISIKE

Variants of: B1
Details: with fas_human FASN

Row | effect of a mutation on the interaction | Variant
1 | with no effect | I254V
